Reference: IntAct's records for PubMed 19013460

B1: Thiamine metabolism regulatory protein THI3 (Saccharomyces cerevisiae), Q07471 (parent)
chain: MNSSYTQRYALPKCIAISDYLFHRLNQLNIHTIFGLSGEFSMPLLDKLYNIPNLRWAGNSNELNAAYAADGYSRLKGLGCLITTFGVGELSAINGVAGSYAEHVGILHIVGMPPTSAQTKQLLLHHTLGNGDFTVFHRIASDVACYTTLIIDSELCADEVDKCIKKAWIEQRPVYMGMPVNQVNLPIESARLNTPLDLQLHKNDPDVEKEVISRILSFIYKSQNPAIIVDACTSRQNLIEETKELCNRLKFPVFVTPMGKGTVNETDPQFGGVFTGSISAPEVREVVDFADFIIVIGCMLSEFSTSTFHFQYKTKNCALLYSTSVKLKNATYPDLSIKLLLQKILANLDESKLSYQPSEQPSMMVPRPYPAGNVLLRQEWVWNEISHWFQPGDIIITETGASAFGVNQTRFPVNTLGISQALWGSVGYTMGACLGAEFAVQEINKDKFPATKHRVILFMGDGAFQLTVQELSTIVKWGLTPYIFVMNNQGYSVDRFLHHRSDASYYDIQPWNYLGLLRVFGCTNYETKKIITVGEFRSMISDPNFATNDKIRMIEIMLPPRDVPQALLDRWVVEKEQSKQVQEENENSSAVNTPTPEFQPLLKKNQVGY
partner: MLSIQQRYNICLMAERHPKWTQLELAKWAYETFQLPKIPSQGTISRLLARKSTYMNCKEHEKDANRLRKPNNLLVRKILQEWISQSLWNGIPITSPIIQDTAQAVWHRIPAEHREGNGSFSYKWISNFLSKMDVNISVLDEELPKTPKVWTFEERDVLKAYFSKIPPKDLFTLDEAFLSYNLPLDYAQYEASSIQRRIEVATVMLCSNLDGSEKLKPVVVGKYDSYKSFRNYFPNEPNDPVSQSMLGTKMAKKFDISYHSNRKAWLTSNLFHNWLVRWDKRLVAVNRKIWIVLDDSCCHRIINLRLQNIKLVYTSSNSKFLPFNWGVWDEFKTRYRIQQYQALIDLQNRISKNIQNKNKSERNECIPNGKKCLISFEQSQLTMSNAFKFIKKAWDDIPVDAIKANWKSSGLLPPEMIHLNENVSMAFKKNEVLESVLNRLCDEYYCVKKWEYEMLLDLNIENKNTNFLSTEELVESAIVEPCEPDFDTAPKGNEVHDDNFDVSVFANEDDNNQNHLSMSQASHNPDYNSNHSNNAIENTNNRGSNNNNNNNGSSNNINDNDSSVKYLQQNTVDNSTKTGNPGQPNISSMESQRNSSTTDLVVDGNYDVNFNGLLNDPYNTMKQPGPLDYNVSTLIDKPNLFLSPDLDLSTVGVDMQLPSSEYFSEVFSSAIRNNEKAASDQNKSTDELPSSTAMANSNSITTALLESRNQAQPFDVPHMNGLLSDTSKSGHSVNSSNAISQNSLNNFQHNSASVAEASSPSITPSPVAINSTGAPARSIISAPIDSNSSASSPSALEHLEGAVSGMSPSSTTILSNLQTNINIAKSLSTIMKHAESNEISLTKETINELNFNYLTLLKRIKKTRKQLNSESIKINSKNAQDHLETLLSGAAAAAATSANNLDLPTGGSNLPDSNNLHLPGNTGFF

Variants of: B1
Settings: with pdc2_yeast PDC2, P32896

For N488D, which “effect of a mutation on the interaction” value is on record?
The value was “increasing interaction”.
